The values that follow are results of earlier work, collected in paper PMC3485249.

The data set concerns the target Pygopus PHD PHD (Homo sapiens) (UniProt Q9Y3Y4).

Turning to Pygopus PHD PHD (from UniProt Q9Y3Y4), the Kd – broadly, the concentration at which binding is half-saturated – is 1 µM.
